According to PMC6149797, “Rational Engineering of a Flavoprotein Oxidase for Improved Direct Oxidation of Alcohols to Carboxylic Acids” (Molecules : A Journal of Synthetic Chemistry and Natural …, 2017):

B1: 5-(hydroxymethyl)furfural oxidase (HMFO) (Methylovorus sp. MP688) (protein)
chain: MTDTIFDYVIVGGGTAGSVLANRLSARPENRVLLIEAGIDTPENNIPPEIHDGLRPWLPRLSGDKFFWPNLTIHRAAEHPGITREPQFYEQGRLLGGGSSVNMVVSNRGLPRDYDEWQALGADGWDWQGVLPYFIKTERDADYGDDPLHGNAGPIPIGRVDSRHWSDFTVAATQALEAAGLPNIHDQNARFDDGYFPPAFTLKGEERFSAARGYLDASVRVRPNLSLWTESRVLKLLTTGNAITGVSVLRGRETLQVQAREVILTAGALQSPAILLRTGIGPAADLHALGIPVLADRPGVGRNLWEHSSIGVVAPLTEQARADASTGKAGSRHQLGIRASSGVDPATPSDLFLHIGADPVSGLASAVFWVNKPSSTGWLKLKDADPFSYPDVDFNLLSDPRDLGRLKAGLRLITHYFAAPSLAKYGLALALSRFAAPQPGGPLLNDLLQDEAALERYLRTNVGGVWHASGTARIGRADDSQAVVDKAGRVYGVTGLRVADASIMPTVPTANTNLPTLMLAEKIADAILTQA
notes: N-terminal His-SUMO fusion (Champion pET SUMO), tag not cleaved; E. coli BL21(DE3)

Columns and labels:
O=[N+]([O-])c1ccc(CO)cc1 = system: T1, O=[N+]([O-])c1ccc(CO)cc1; assay: coupled HRP H2O2 assay, Michaelis-Menten; type: biochemical, Methylovorus sp. MP688; conditions: O2 (co-substrate), 100 mM sodium phosphate pH 7.0, 30 °C
T1 construct: N-terminal His-SUMO fusion (Champion pET SUMO), tag not cleaved; E. coli BL21(DE3)
From the text: (§1) coupled HRP H2O2 assay, Michaelis-Menten on 5-(hydroxymethyl)furfural oxidase (HMFO)

[1] = system: T2, O=Cc1ccc([N+](=O)[O-])cc1; assay: coupled HRP H2O2 assay, Michaelis-Menten; type: biochemical, Methylovorus sp. MP688; conditions: O2 (co-substrate), 100 mM sodium phosphate pH 7.0, 30 °C, aldehyde oxidised via its gem-diol hydrate
T2 construct: N-terminal His-SUMO fusion (Champion pET SUMO), tag not cleaved; E. coli BL21(DE3)
From the text: as §1

[2] = substrate: O=Cc1ccc([N+](=O)[O-])cc1; assay: coupled HRP H2O2 assay, Michaelis-Menten; type: biochemical, Methylovorus sp. MP688; conditions: O2 (co-substrate), 100 mM sodium phosphate pH 7.0, 30 °C, aldehyde oxidised via its gem-diol hydrate
From the text: as §1

purified protein = substrate: O=[N+]([O-])c1ccc(CO)cc1; assay: purified protein; conditions: O2 (co-substrate), 100 mM sodium phosphate pH 7.0, 30 °C

Molecule	Km (O=[N+]([O-])c1ccc(CO)cc1) [mM]	kcat (O=[N+]([O-])c1ccc(CO)cc1) [s⁻¹]	kcat/Km (O=[N+]([O-])c1ccc(CO)cc1) [M⁻¹ s⁻¹]	Km [1] [mM]	kcat [1] [s⁻¹]	kcat/Km [1] [M⁻¹ s⁻¹]	Km [2] [mM]	kcat [2] [s⁻¹]	kcat/Km [2] [M⁻¹ s⁻¹]	Km (purified protein) [mM]	kcat (purified protein) [s⁻¹]	kcat/Km (purified protein) [M⁻¹ s⁻¹]
5-(hydroxymethyl)furfural oxidase (HMFO) (Methylovorus sp. MP688; V465T)	0.03	1.7	57000									
5-(hydroxymethyl)furfural oxidase (HMFO) (Methylovorus sp. MP688; W466H)	0.40	0.02	50	0.16	0.003	20						
B1							0.31	0.3	970	0.26	7.4	28000
